Laboratory results taken from patent US20180327803A1.

Columns and labels:
[1] = target: human serum-derived IgG polyclonal antibody (#I4506; Sigma-Aldrich) (human); assay: scFv-immobilized HiTrap NHS column
[2] = target: human IgG1 antibody (#I5154; Sigma-Aldrich) (human); assay: SPR, single cycle kinetics, IgG1 chip

B1: R3-26 rabbit-derived single-chain antibody-His (scFv)
scFv: QEQLVESGGGLVKPGGTLTLTCTVSGIDLSSYAMSWVRQVPGKGLEWIGIIGSGGGTAYANWAKGRFTISKTSSTTVDLKMTSLTTEDTATYFCATDYGIYGYAYGHLWGPGTLVTVTSGGGGSGGGGSGGGGSELVMTQTASPVSAAVGGTVTIKCQASQSISTALAWYQQRPGQPPKLLIYDASTLASGVSSRFKGSGSGTEFTLTISDLECADAATYYCQTYFGSDTDNAFGEGTEVEITGSHHHHHH
amount of IgG adsorbed to the column and eluted [1]: 5.3 mg
percent of supplied IgG adsorbed to the column and eluted [1]: 53%
Kd [2]: 2.1 nM
koff [2]: 4.3e-05 s⁻¹
kon [2]: 21000 M⁻¹ s⁻¹
